From article PMC1762433 come the findings set out here.

The target of this assay is FBXW8 (UniProt Q8N3Y1). Description: HA IP, V5 immunoblot. To be noted: reference: HA-cyclin D1 wild type; sites T286. (In general: A western blot detects proteins with antibodies after separation by electrophoresis.)

As to “cyclin D1 (from UniProt P24385) HA-cyclin D1 T286A”, the “binding against the reference” value was “weaker”.
